Test results from US20170304435A1 (GOVERNING COUNCIL OF THE UNIVERSITY OF TORONTO, published 2017).

T1: TRAF2, endogenous in Jurkat cells (UniProt Q12933 2-501, limits assumed)
T1 construct: Endogenous protein probed by immunoblot with rabbit anti-TRAF2 (sc-876)
T1 sequence (looked up): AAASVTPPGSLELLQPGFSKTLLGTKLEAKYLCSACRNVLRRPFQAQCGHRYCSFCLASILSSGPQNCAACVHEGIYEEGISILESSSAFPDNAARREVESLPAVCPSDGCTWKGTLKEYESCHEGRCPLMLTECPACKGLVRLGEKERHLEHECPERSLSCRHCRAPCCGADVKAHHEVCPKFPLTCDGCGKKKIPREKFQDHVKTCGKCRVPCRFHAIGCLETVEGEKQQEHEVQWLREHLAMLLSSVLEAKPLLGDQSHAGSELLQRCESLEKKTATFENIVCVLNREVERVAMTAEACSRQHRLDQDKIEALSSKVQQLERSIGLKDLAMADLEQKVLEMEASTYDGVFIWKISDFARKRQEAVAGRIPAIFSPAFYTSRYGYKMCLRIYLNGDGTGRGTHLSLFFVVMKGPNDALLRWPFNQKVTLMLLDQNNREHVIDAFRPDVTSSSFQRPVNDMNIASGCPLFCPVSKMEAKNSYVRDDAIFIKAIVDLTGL

T2: TRAF6 (ubiquitin ligase, tumor necrosis factor receptor-associated factor 6), endogenous in Jurkat or 293T … (UniProt Q9Y4K3 1-522)
T2 construct: Endogenous protein detected by immunoblot or immunostaining with mouse anti-TRAF6 (sc-8409)
T2 sequence (looked up): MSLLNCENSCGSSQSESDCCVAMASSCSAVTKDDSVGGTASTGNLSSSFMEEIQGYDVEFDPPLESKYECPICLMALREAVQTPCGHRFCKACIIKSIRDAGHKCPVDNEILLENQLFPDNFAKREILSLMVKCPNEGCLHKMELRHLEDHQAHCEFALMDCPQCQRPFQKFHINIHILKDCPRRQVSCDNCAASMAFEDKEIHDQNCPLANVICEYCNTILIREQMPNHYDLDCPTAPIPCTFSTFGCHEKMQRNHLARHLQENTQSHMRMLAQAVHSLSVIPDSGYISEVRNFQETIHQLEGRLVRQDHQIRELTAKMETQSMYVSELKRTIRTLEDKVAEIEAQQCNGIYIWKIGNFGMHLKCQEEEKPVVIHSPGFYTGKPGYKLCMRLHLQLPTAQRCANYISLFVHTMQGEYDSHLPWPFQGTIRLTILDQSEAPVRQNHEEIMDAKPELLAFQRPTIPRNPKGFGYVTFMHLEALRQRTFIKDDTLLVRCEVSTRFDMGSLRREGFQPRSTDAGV


Columns and labels:
[1] = target: T1, TRAF2, endogenous in Jurkat cells; test: FLAG-TIFA immunoprecipitation from Jurkat cells, immunoblot for TRAF2
Experimental: Briefly, cells were lysed in 50 mM Hepes-KOH pH 8.0, 100 mM KCl, 2 mM EDTA, 0.1% NP40, 10% glycerol. Soluble cell lysates were pre-cleared for 2 hr with mouse IgG agarose (Sigma) and immunoprecipitated overnight at 4° C. Proteins eluted using 0.5 M NH₄OH pH 11 (for mass-spectrometry), or 3× FLAG-peptide (Sigma) (immunoblot analysis). […] Data were analyzed by Scaffold PTM (Proteome).

[2] = target: the molecule itself; test: native PAGE and FLAG immunoblot, HBP-treated Jurkat cells
[3] = target: T2, TRAF6 (ubiquitin ligase, tumor necrosis …); test: FLAG immunoprecipitation from HBP-treated Jurkat cells, immunoblot for TRAF6
Experimental: Briefly, cells were lysed in 50 mM Hepes-KOH pH 8.0, 100 mM KCl, 2 mM EDTA, 0.1% NP40, 10% glycerol. Soluble cell lysates were pre-cleared for 2 hr with mouse IgG agarose (Sigma) and immunoprecipitated overnight at 4° C. Proteins eluted using 0.5 M NH₄OH pH 11 (for mass-spectrometry), or 3× FLAG-peptide (Sigma) (immunoblot analysis).

[4] = target: the molecule itself; test: confocal microscopy of FLAG-TIFA aggregates in HBP-treated 293T cells
[5] = target: the molecule itself; test: confocal microscopy of TIFA aggregates in HBP-treated 293T cells

| Binder | binding result [1] | binding result [2] | binding result [3] | binding result [4] | binding result [5] |
| --- | --- | --- | --- | --- | --- |
| FLAG-TIFA wild type (TRAF-interacting forkhead associated protein A with one N-terminal FLAG sequence), from HBP-treated cells (other, not shown: small tags and cut ends, phospho-threonine 9 (pT9), found only after treatment with HBP, Forms oligomers after HBP; also called FLAG-TIFA wildtype (wt); Wt) MTSFEDADTEETVTCLQMTVYHPGQLQCGIFQSISFNREKLPSSEVVKFGRNSNICHYTFQDKQVSRVQFSLQLFKKFNSSVLSFEIKNMSKKTNLIVDSRELGYLNKMDLPYRCMVRFGEYQFLMEKEDGESLEFFETQFILSPRSLLQENNWPPHRPIPEYGTYSLCSSQSSSPTEMDENES | no binding | binds |  |  |  |
| FLAG-TIFA E178A (mutation in the TRAF6 binding site) (other, not shown: small tags and cut ends, Point mutant of FLAG-TIFA; stably expressed with endogenous TIFA knocked down; also called TRAF6 (E178A) mutant) MTSFEDADTEETVTCLQMTVYHPGQLQCGIFQSISFNREKLPSSEVVKFGRNSNICHYTFQDKQVSRVQFSLQLFKKFNSSVLSFEIKNMSKKTNLIVDSRELGYLNKMDLPYRCMVRFGEYQFLMEKEDGESLEFFETQFILSPRSLLQENNWPPHRPIPEYGTYSLCSSQSSSPTAMDENES |  |  | no binding | binds |  |
| FLAG-TIFA G50E/S66A (mutations in the FHA domain) (other, not shown: small tags and cut ends, Double point mutant of FLAG-TIFA; stably expressed with endogenous TIFA knocked down; also called FHA mutant) MTSFEDADTEETVTCLQMTVYHPGQLQCGIFQSISFNREKLPSSEVVKFERNSNICHYTFQDKQVARVQFSLQLFKKFNSSVLSFEIKNMSKKTNLIVDSRELGYLNKMDLPYRCMVRFGEYQFLMEKEDGESLEFFETQFILSPRSLLQENNWPPHRPIPEYGTYSLCSSQSSSPTEMDENES |  |  | no binding |  |  |
| FLAG-TIFA T9A (other, not shown: small tags and cut ends, Point mutant of FLAG-TIFA made with QuickChange II; stably expressed with endogenous TIFA knocked down) MTSFEDADAEETVTCLQMTVYHPGQLQCGIFQSISFNREKLPSSEVVKFGRNSNICHYTFQDKQVSRVQFSLQLFKKFNSSVLSFEIKNMSKKTNLIVDSRELGYLNKMDLPYRCMVRFGEYQFLMEKEDGESLEFFETQFILSPRSLLQENNWPPHRPIPEYGTYSLCSSQSSSPTEMDENES |  |  | no binding |  | no binding |
